From patent US20250011363A1, “OPTIMIZED SHORTENED PEPTIDE THAT BINDS TO ACETYLCHOLINE RECEPTOR, AND USE THEREOF” (SKINMED CO., LTD., priority 2021, published 2025)

What follows are binders tested against acetylcholine receptor (assay: SPR, AchR immobilised on CM5 chip, peptide 10 uM).

Binder | Binding affinity (RU)
KNADRR [6mer-2-651] | 21
KIDDRK [6mer-2-672] | 20
RFCNKK [6mer-2-668] | 13
RDWIRR [6mer-2-671] | 27
RFCGRK [6mer-2-673] | 23
RHKDRK [6mer-2-660] | 16
KKWERK [6mer-2-674] | 26
RYSAKK [6mer-2-679] | 20
KTEPKR [6mer-2-647] | 19
KTEIRK [6mer-2-683] | 33
RNMERR [6mer-2-682] | 33
RMPEKR [6mer-2-654] | 20
KFDVRK [6mer-2-649] | 31
RMKAKK [6mer-2-661] | 29
RTTMRK [6mer-2-652] | 16
KCAERR [6mer-2-665] | 18
KIEMKR [6mer-2-653] | 20
KAHPKK [6mer-2-662] | 11
KEWWRR [6mer-2-678] | 32
RMKWRK [6mer-2-675] | 14
KCTAKK [6mer-2-676] | 14

Binder | Binding affinity (RU)
RKHERK [6mer-2-657] | 32
RKWHKR [6mer-2-670] | 33
RIKVKK [6mer-2-645] | 15
KFHNRK [6mer-2-685] | 15
KADPRR [6mer-2-656] | 11
RENWKK [6mer-2-677] | 28
KHDMRR [6mer-2-667] | 25
RYPDRK [6mer-2-648] | 23
KNHGKR [6mer-2-680] | 15
KNMWRK [6mer-2-669] | 15
RAAPRR [6mer-2-646] | 32
RDTWRR [6mer-2-681] | 33
KFAGRR [6mer-2-663] | 24
KIPNKR [6mer-2-659] | 22
RFKARK [6mer-2-650] | 18
RYWVKK [6mer-2-658] | 23
KPMDRR [6mer-2-666] | 25
KCCWKK [6mer-2-664] | 11
KIWFRR [6mer-2-655] | 31
RYTMKK [6mer-2-684] | 14

Results, then the binder that gave them:

Binding affinity (RU) | Binder
13 | KFTMRK [6mer-2-690]
11 | RENFKK [6mer-2-705]
29 | KIKPRR [6mer-2-719]
18 | RTWKKR [6mer-2-716]
31 | RIWPKR [6mer-2-709]
27 | KCEDKK [6mer-2-698]
29 | KYTNRR [6mer-2-692]
14 | RNKKKK [6mer-2-710]
15 | RHKMRK [6mer-2-691]
26 | RHSKKK [6mer-2-721]
13 | RPMFRK [6mer-2-688]
32 | RATHRK [6mer-2-715]
24 | RDKERR [6mer-2-689]
23 | KFTDRK [6mer-2-706]
21 | RTWKRK [6mer-2-707]
19 | KCAVKK [6mer-2-697]
16 | KADGRK [6mer-2-687]
20 | KFTKKK [6mer-2-696]
29 | KECGRR [6mer-2-711]

Binding affinity (RU) | Binder
22 | KDSIRK [6mer-2-694]
18 | KEMIKR [6mer-2-702]
29 | KIPHRR [6mer-2-712]
29 | RAWVKK [6mer-2-708]
21 | KTWEKK [6mer-2-686]
21 | RNEHRR [6mer-2-722]
16 | KNTIRR [6mer-2-693]
12 | KYTFKR [6mer-2-718]
23 | KNAGKR [6mer-2-699]
15 | KCPGKR [6mer-2-717]
15 | RPWHKK [6mer-2-700]
24 | RASWRR [6mer-2-713]
14 | RTMHKR [6mer-2-703]
20 | KDWHRK [6mer-2-704]
28 | KCWWRR [6mer-2-695]
30 | KIDVRK [6mer-2-714]
23 | KTWAKR [6mer-2-701]
29 | RATNRK [6mer-2-720]
